Reference: patent US20230242645A1
pKd: −log10 of the molar value.

What was measured:
[1] = biological target: human PD-L1 on CHO-K1 cells (WBP315.CHO-K1.hPro1.C11) (human) (UniProt Q9NZQ7); assay: FACS on human PD-L1 expressing CHO-K1 cells, FITC anti-human IgG
[2] = biological target: human PD-L1 extracellular domain, his tag (W315-hPro1.ECD.his) (human) (UniProt Q9NZQ7); assay: SPR (Biacore T200), antibody captured on anti-human Fc, antigen as analyte, 25 °C
[3] = biological target: mouse PD-L1 on 293F cells (WBP315.293F.mPro1.C1) (mouse) (UniProt Q9EP73); assay: FACS on mouse PD-L1 expressing 293F cells, FITC anti-human IgG
Sequence of mouse PD-L1 on 293F cells (WBP315.293F.mPro1.C1) (mouse) (Q9EP73 19-290): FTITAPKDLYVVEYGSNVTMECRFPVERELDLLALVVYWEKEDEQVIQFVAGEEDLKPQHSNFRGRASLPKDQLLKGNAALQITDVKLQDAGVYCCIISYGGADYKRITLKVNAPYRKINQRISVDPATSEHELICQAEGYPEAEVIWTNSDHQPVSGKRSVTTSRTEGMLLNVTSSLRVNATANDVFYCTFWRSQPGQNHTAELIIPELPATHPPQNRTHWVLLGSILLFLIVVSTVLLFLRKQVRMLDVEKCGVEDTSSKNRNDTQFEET

[4] = biological target: cynomolgus monkey PD-L1 on 293F cells (WBP315.293F.cPro1.2A) (cynomolgus monkey) (UniProt G7PSE7); assay: FACS on cynomolgus PD-L1 expressing 293F cells, FITC anti-human IgG
Sequence of cynomolgus monkey PD-L1 on 293F cells (WBP315.293F.cPro1.2A) (cynomolgus monkey) (G7PSE7 entry or part of it limits assumed): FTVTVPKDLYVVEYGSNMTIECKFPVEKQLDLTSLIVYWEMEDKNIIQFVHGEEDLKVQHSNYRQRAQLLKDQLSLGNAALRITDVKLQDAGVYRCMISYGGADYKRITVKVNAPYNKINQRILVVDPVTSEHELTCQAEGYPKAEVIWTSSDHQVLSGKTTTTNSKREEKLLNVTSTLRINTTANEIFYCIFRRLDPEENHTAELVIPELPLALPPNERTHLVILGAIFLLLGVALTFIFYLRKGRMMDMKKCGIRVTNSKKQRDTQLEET

Sequence of human PD-L1 on CHO-K1 cells (WBP315.CHO-K1.hPro1.C11) (human) (Q9NZQ7 19-290): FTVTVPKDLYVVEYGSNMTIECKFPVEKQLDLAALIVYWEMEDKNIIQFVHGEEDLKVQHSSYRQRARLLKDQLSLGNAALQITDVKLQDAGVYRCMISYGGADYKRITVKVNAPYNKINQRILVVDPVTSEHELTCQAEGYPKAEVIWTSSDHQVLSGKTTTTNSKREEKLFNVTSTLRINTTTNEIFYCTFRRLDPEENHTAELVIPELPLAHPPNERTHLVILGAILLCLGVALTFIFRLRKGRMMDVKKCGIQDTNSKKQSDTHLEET
Sequence of human PD-L1 extracellular domain, his tag (W315-hPro1.ECD.his) (human) (Q9NZQ7 19-238): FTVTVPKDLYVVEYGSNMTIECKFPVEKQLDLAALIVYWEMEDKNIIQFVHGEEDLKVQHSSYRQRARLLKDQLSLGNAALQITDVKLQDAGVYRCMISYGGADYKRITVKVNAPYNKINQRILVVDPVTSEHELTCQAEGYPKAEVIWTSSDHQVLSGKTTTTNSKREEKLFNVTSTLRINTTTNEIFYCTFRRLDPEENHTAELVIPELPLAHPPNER

EC50 (read off the curve) [1]: 0.1 nM
pKd [2]: 10.22
EC50 (read off the curve) [3]: 2 nM
EC50 (read off the curve) [4]: 2 nM
Substance: W315-BMK8.uIgG1K(RKNA) (Atezolizumab) (antibody)
